Data: the supplement of paper PMC10567573

B1: DUSP5 (parent)
chain: YSEYPECCVDVKPISQEKIESERA
B2: IQUB (parent)
chain: EADYEDDSKIAFLMQLQDIQYLTE

Variants of: B1
Assay: protein stability index of a GFP-peptide fusion (GPS, HEK-293T) (PSI 1-6); higher = more stable
Details: c terminus: a fixed tail appended
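Note: lentivirally expressed fusions sorted by FACS into six bins by GFP to DsRed ratio, PSI derived from sequencing read proportions per bin multiplied by bin number.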

Protein stability index, by site and new letter:
C8: T 5.41, H 5.2, G 5.25, Y 2.15, D 4.84, A 4.56, R 5.24, E 4.85, P 5.6, V 4.35, K 4.87, N 5.64, Q 4.58, W 1.32, L 4.07, I 3.77, S 4.66, M 4.59
Y4: A 5.66, E 5.93, W 1.72, M 4.6, G 5.77, R 5.52, P 5.53, I 5.75, T 5.77, S 5.19, Q 5.34, V 5.67, H 5.02, F 4.06, D 5.67, K 5.62, L 5.71
Y1: N 5.6, P 4.94, D 5.29, V 5.31, I 4.87, H 5.21, S 5.75, W 5.1, K 5.36, L 5.5, R 5.62, A 5.74, T 5.23, G 5.21, Q 5.33, C 5.2, F 4.12, M 5, E 5.86
E6: Q 2.67, F 2.28, N 3.74, M 1.63, A 2.63, W 3.98, P 2.4, S 2.9, G 3.36, H 2.47, R 1.83, C 2.6, D 4.55, K 1.38, T 2.75, Y 1.44, V 2.37
S2: H 2.13, A 3.48, N 5.31, E 5.79, M 4.28, K 5.35, R 5.49, T 2.62, F 4.11, C 2.29, Q 4.29, G 5.11, I 1.92, V 2.53, P 4.88, L 3.67, D 5.29, Y 4.93, W 4.44
C7: I 3.37, D 4.89, Y 2.02, M 3.81, A 4.16, V 3.95, F 2.28, T 4.81, G 5.38, P 5.4, N 4.64, L 3.75, H 4.17, W 2.95, R 4.26, Q 5.35, K 4.6, E 5.76, S 5.47
P5: D 5.42, Q 5.33, Y 3.9, M 3.98, F 3.18, W 1.21, H 3.39, C 4.34, R 3.48, L 4.28, A 4.47, V 4.45, S 4.73, N 5.38, K 5.16, I 3.96, T 4.85
E3: Q 4.36, K 4.53, Y 4.24, P 4.56, L 4.24, F 4.66, H 4.49, T 4.67, D 5.39, C 3.53, R 4.17, N 4.62, M 4.7, A 4.55, G 4.27, S 3.95, I 4.17

Variants of: B2
Assay: as above
Details: c terminus: a fixed tail appended

Protein stability index of substitutions, site by site:
F12: Y 3.73
T23: S 3.21
Q17: F 2.68, S 2.69
L16: H 4.43
I10: H 4.29
Q20: F 1.54
E24: M 1.86
E1: F 1.99, V 1.74
D7: W 2.33, Y 2.18
L13: W 3.51
A2: G 2.71
D6: F 2.04
I19: W 2.64
M14: R 3.75
Y4: K 3.96
D18: N 2.58, C 1.84
E5: W 2.29, F 2.38, V 2.38
A11: G 3.41
